Experimental data taken from the RNAGym collection of RNA variant scans (doi:10.7554/elife.80360).

B1: Hairpin Ribozyme (parent)
chain: GUCCUCUUUCACGUGCGCGUGAAAGAGAGAAGUGAACCAGAGAAACACACGUUGUGGUAUAUUACCUGGUA

Variants of: B1
Test: self-cleavage, relative activity (ratio to wild type); higher = more cleavage; co-transcriptional

| Variant | self-cleavage |
| --- | --- |
| GUCCUCUAUCACGUGCGCGUGAAAGAGAGAAGUGAACCAGAGAAACCCACGUUGUGGUAUAUUACCUGGUA [U8A A47C] | 0.295 |
| GUCCUCUAUCACGUGCGCGUGAAAGAGAGAAGUGAACCAGAGAAACUCACGUUGUGGUAUAUUACCUGGUA [U8A A47U] | 0.16 |
| GUCCUCUAUCACGUACGCGUGAAAGAGAGAAGUGAACCAGAGAAACACACGUUGUGGUAUAUUACCUGGUA [U8A G15A] | 0.826 |
| GUCCUCUAUCACGUGCGCGUGAAAGAGAGAAGUGAACCAGAUAAACACACGUUGUGGUAUAUUACCUGGUA [U8A G42U] | 0.261 |
| GUCCUCUAUCACGUGCGCGUGAAAGAGAGAAGUGAACCAGACAAACACACGUUGUGGUAUAUUACCUGGUA [U8A G42C] | 0.147 |
| GUCCUCUAUCACGUGCGCGUGAAAGAGAGAAGUGAACCGGAGAAACACACGUUGUGGUAUAUUACCUGGUA [U8A A39G] | 0.279 |
| GUCCUCUAUCACGUGCGCGUGAAAGAGAGAAGUGAACCUGAGAAACACACGUUGUGGUAUAUUACCUGGUA [U8A A39U] | 0.334 |
| GUCCUCUAUCACGUGCGCGUGAAACAGAGAAGUGAACCAGAGAAACACACGUUGUGGUAUAUUACCUGGUA [U8A G25C] | 0.155 |
| GUCCUCGUUCACGUGCGCGUGAAAGAGAGAAGUGAACCAGAGAAACACACGUUGUGGUAUAUAACCUGGUA [U7G U63A] | 0.179 |
| GUCCUCGUUCACGUGCGCGUGAAAGAGAGAAGUGAACCAGAGAAACACACGUUGUGGUAUAUGACCUGGUA [U7G U63G] | 0.145 |
| GUCCUCUAUCCCGUGCGCGUGAAAGAGAGAAGUGAACCAGAGAAACACACGUUGUGGUAUAUUACCUGGUA [U8A A11C] | 0.393 |
| GUCCUCUAUCACGUGCGCGUUAAAGAGAGAAGUGAACCAGAGAAACACACGUUGUGGUAUAUUACCUGGUA [U8A G21U] | 0.691 |
| GUCCUCUAUCACGUGCGCGUGAAAGAGAGAAGUGAACCAGAGAAACACACGUUGUGCUAUAUUACCUGGUA [U8A G57C] | 0.0778 |
| GUCCUCUAUCACGUGCGCGUGAAAGAGAGAAGUGAACCAGAGAAACACACGUUGUGUUAUAUUACCUGGUA [U8A G57U] | 0.267 |
| GUCCUCUAUCACGUGCGCGUGAAAGAGAGAAGUGAACCAGAGAAACACACGUUGUGAUAUAUUACCUGGUA [U8A G57A] | 0.196 |
| GUCCUCUAUCACGUGCGCGUGAAAGAGAGAAGUCAACCAGAGAAACACACGUUGUGGUAUAUUACCUGGUA [U8A G34C] | 0.902 |
| GUCCUCUAUCACGUGCGCGUGAAAGAGAGAAGUUAACCAGAGAAACACACGUUGUGGUAUAUUACCUGGUA [U8A G34U] | 1.05 |
| GUCCUCUAUCACGUGCGCGUGAAAGAGAGAAGUGAACCAGAGAAACACACGUUGUGGGAUAUUACCUGGUA [U8A U58G] | 0.515 |
| GUCCUCUAUCACGUGCGCGUGAAAGAGAGAAGUGAACCAGAGAAACACACGUUGUGGCAUAUUACCUGGUA [U8A U58C] | 0.913 |
| GUCCUCUAUCACGUGCGCGUGAAAGAGAGAAGUGAACCAGAGAAACACACGUUGUGGAAUAUUACCUGGUA [U8A U58A] | 0.561 |
| GUCCUCUAUCACGUGCGCGUGAAAGAGAGAAGUGAACCAGAGAAACACACGUUAUGGUAUAUUACCUGGUA [U8A G54A] | 0.396 |
| GUCCUCGUUCACGUGCGCGUGAAAGAGAGAAGUGAACCAGAGAAACACACGUUGUGGUAGAUUACCUGGUA [U7G U60G] | 0.484 |
| GUCCUCUAUCACGUGCGCGUGAAAGAGAGCAGUGAACCAGAGAAACACACGUUGUGGUAUAUUACCUGGUA [U8A A30C] | 0.172 |
| GUCCUCUAUCACGUGCGCGUGAAAGAGAGAAGUGAACCAGAGAAACACACGUUGUGGUAUAUUACCUGGUG [U8A A71G] | 0.699 |
| GUCCUCUAUCACGUGCGCGUGAAAGAGAGAAGUGAACCAUAGAAACACACGUUGUGGUAUAUUACCUGGUA [U8A G40U] | 0.109 |
| GUCCUCUAUCACGUGCGCGUGAAAGAGAGAAGUGAACCAGAGAAACACACUUUGUGGUAUAUUACCUGGUA [U8A G51U] | 0.92 |

| Variant | self-cleavage |
| --- | --- |
| GUCCUCUAUCACGUGCGCGUGAAAGAGAGAAGUGAACCAGAGAAACACACAUUGUGGUAUAUUACCUGGUA [U8A G51A] | 0.749 |
| GUCCUCUAUCACGUGCGCGUGAAAGAGAGAAGUGAACCAGAGUAACACACGUUGUGGUAUAUUACCUGGUA [U8A A43U] | 0.106 |
| GUCCUCUCUCACGUGCGCGUGAAAGAGAGCAGUGAACCAGAGAAACACACGUUGUGGUAUAUUACCUGGUA [U8C A30C] | 0.201 |
| GUCCUCUCUCACGUGCGCGUGAAAGAGAGAGGUGAACCAGAGAAACACACGUUGUGGUAUAUUACCUGGUA [U8C A31G] | 0.241 |
| GUCCUCUCUCACGUGCGCGUGAAAGAGAGACGUGAACCAGAGAAACACACGUUGUGGUAUAUUACCUGGUA [U8C A31C] | 0.0859 |
| GUCCUCUCUCACGUGCGCGUGGAAGAGAGAAGUGAACCAGAGAAACACACGUUGUGGUAUAUUACCUGGUA [U8C A22G] | 0.515 |
| GUCCUCUCUCACGUGCGCGUGCAAGAGAGAAGUGAACCAGAGAAACACACGUUGUGGUAUAUUACCUGGUA [U8C A22C] | 0.209 |
| GUCCUCUAUCACGUGCGCGUGAAAGAGAGAACUGAACCAGAGAAACACACGUUGUGGUAUAUUACCUGGUA [U8A G32C] | 0.111 |
| GUCCUCUAUCACGUGGGCGUGAAAGAGAGAAGUGAACCAGAGAAACACACGUUGUGGUAUAUUACCUGGUA [U8A C16G] | 0.632 |
| GUCCUCUAUCACGUGAGCGUGAAAGAGAGAAGUGAACCAGAGAAACACACGUUGUGGUAUAUUACCUGGUA [U8A C16A] | 0.876 |
| GUCCUCUAUCACGUGCGCUUGAAAGAGAGAAGUGAACCAGAGAAACACACGUUGUGGUAUAUUACCUGGUA [U8A G19U] | 0.661 |
| GUCCUCUAUCACGUGCGCGUGAAAGAGAGAAGUGAACCAGAGAAAAACACGUUGUGGUAUAUUACCUGGUA [U8A C46A] | 0.133 |
| GUCCUCUAUCACGUGCGCGUGAAAGAGAGAAGUGAACCAGAGAAAUACACGUUGUGGUAUAUUACCUGGUA [U8A C46U] | 0.0775 |
| GUCCUCUAUCACGUGCGCGUGAAAGAGAGAAGUGAACCAGAGAAACACACGUUGUGGUAUAUUGCCUGGUA [U8A A64G] | 0.503 |
| GUCCUCUAGCACGUGCGCGUGAAAGAGAGAAGUGAACCAGAGAAACACACGUUGUGGUAUAUUACCUGGUA [U8A U9G] | 0.791 |
| GUCCUCUAACACGUGCGCGUGAAAGAGAGAAGUGAACCAGAGAAACACACGUUGUGGUAUAUUACCUGGUA [U8A U9A] | 0.793 |
| GUCCUCUAUCACGUGCGCGUGAAGGAGAGAAGUGAACCAGAGAAACACACGUUGUGGUAUAUUACCUGGUA [U8A A24G] | 0.511 |
| GUCCUCUAUCACGUGCGCGUGAAAGAGAGAAGUGAACCAGAGAAACACACGUUGUGGUAUAAUACCUGGUA [U8A U62A] | 0.105 |
| GUCCUCUCUCCCGUGCGCGUGAAAGAGAGAAGUGAACCAGAGAAACACACGUUGUGGUAUAUUACCUGGUA [U8C A11C] | 0.289 |
| GUCCUCUCUCACGUGCGCGUGAAAGAGGGAAGUGAACCAGAGAAACACACGUUGUGGUAUAUUACCUGGUA [U8C A28G] | 1.07 |
| GUCCUCUAUCACGUGCGCGUGGAAGAGAGAAGUGAACCAGAGAAACACACGUUGUGGUAUAUUACCUGGUA [U8A A22G] | 0.644 |
| GUCCUCUAUCACGUGCGCGUGAAAGAGAGAAGUGAACCAGAGAAACACACGCUGUGGUAUAUUACCUGGUA [U8A U52C] | 0.647 |
| GUCCUCUAUCACGUGCGCGUGAAAGACAGAAGUGAACCAGAGAAACACACGUUGUGGUAUAUUACCUGGUA [U8A G27C] | 0.186 |
| GUCCUCUAUCACGUGCGCGUGAAAGAGAGAAGUGAACCAGGGAAACACACGUUGUGGUAUAUUACCUGGUA [U8A A41G] | 0.615 |
| GUCCUCUAUCACGUGCGCGUGAAAGAGAGAAGUGAACCAGAGAAACACACGUUGUAGUAUAUUACCUGGUA [U8A G56A] | 0.158 |
| GUCCUCUAUCACGUGCGCGUGAAAGAGAGAAGUGAACCAGAGAAACACACGUUGUGGUAUCUUACCUGGUA [U8A A61C] | 0.165 |

| Variant | self-cleavage |
| --- | --- |
| GUCCUCUAUCACGUGCGCGUGAAAGAGAGAAGUGAACCAGAGAAACACACGUUGUGGUAUAUCACCUGGUA [U8A U63C] | 0.218 |
| GUCCUCUAUCACGUGCGCGUGAAAGAGAGAAGUGAACCAGAGAAACACACGUUGUGGUAUAUUACCUAGUA [U8A G68A] | 0.179 |
| GUCCUCUCUCACGUGCGCGUGAAAGUGAGAAGUGAACCAGAGAAACACACGUUGUGGUAUAUUACCUGGUA [U8C A26U] | 0.336 |
| GUCCUCUCUCACGUGCGCGUGAACGAGAGAAGUGAACCAGAGAAACACACGUUGUGGUAUAUUACCUGGUA [U8C A24C] | 0.196 |
| GUCCUCUCUCACGUGCGCGUGAAGGAGAGAAGUGAACCAGAGAAACACACGUUGUGGUAUAUUACCUGGUA [U8C A24G] | 0.502 |
| GUCCUCUAUCACGUGCGCGUGAAAGAGAGAAGUGCACCAGAGAAACACACGUUGUGGUAUAUUACCUGGUA [U8A A35C] | 0.911 |
| GUCCUCUAUCACGUGCGAGUGAAAGAGAGAAGUGAACCAGAGAAACACACGUUGUGGUAUAUUACCUGGUA [U8A C18A] | 0.872 |
| GUCCUCGUUCACGUGCGCGUGAAAGAGAGAAGUGAACCAGAGAAACACACGUUGUGGGAUAUUACCUGGUA [U7G U58G] | 0.645 |
| GUCCUCGUUCACGUGCGCGUGAAAGAGAGAAGUGAACCAGAGAAACACACGUUGUGGAAUAUUACCUGGUA [U7G U58A] | 0.655 |
| GUCCUCUAUCACGUGCGCGUGAAAGAGACAAGUGAACCAGAGAAACACACGUUGUGGUAUAUUACCUGGUA [U8A G29C] | 0.104 |
| GUCCUCUAUCACGUGCGCGUGAAAGAGAUAAGUGAACCAGAGAAACACACGUUGUGGUAUAUUACCUGGUA [U8A G29U] | 0.0651 |
| GUCCUCUAUCACGUGCGCGUGAAAGAGAGAAGUGAACCAGAGAAACACACGUCGUGGUAUAUUACCUGGUA [U8A U53C] | 0.778 |
| GUCCUCUAUCACGUGCACGUGAAAGAGAGAAGUGAACCAGAGAAACACACGUUGUGGUAUAUUACCUGGUA [U8A G17A] | 0.742 |
| GUCCUCUCUCACGUGCGCGUGAAAGAGAGAAGUGAACCAGAGAAACACACGUUGUGGUAUAUUACCUGGUA [U8C] | 0.739 |
| GUCCUCUAUCACGUGCGCGUGAAAGAGAGAAGUGAACCAGAGAAACACACGUUGUGGUAUAUUACCUGGUA [U8A] | 0.745 |
| GUCCUCUAUCACGUGCGCGUGAAAGAGAGAAGUGAACCAGAGAAACACACGUUGUGGUUUAUUACCUGGUA [U8A A59U] | 0.165 |
| GUCCUCUAUCACGUGCGCGUGAAAGAGAGAAGUGAACCAGAGAAACACACGUUGUGGUACAUUACCUGGUA [U8A U60C] | 0.89 |
| GUCCUCUAUCACGUGCGCGUGAAAGAGAGAAGAGAACCAGAGAAACACACGUUGUGGUAUAUUACCUGGUA [U8A U33A] | 0.0975 |
| GUCCUCUAUCACGUGCGCGUGAAAGAGAGAAGGGAACCAGAGAAACACACGUUGUGGUAUAUUACCUGGUA [U8A U33G] | 0.0531 |
| GUCCUCGUUCACGUGCGCGUGAAAGAGAGAAGUGAACCAGAGAAACACACGCUGUGGUAUAUUACCUGGUA [U7G U52C] | 0.961 |
| GUCCUCGUUCACGUGCGCGUGAAAGAGAGAAGUGAACCAGAGAAACACACGAUGUGGUAUAUUACCUGGUA [U7G U52A] | 0.734 |
| GUCCUCUAUCAAGUGCGCGUGAAAGAGAGAAGUGAACCAGAGAAACACACGUUGUGGUAUAUUACCUGGUA [U8A C12A] | 0.606 |
| GUCCUCUAUCACGUGCGCGUGAAAGAGAGAAGUGAACAAGAGAAACACACGUUGUGGUAUAUUACCUGGUA [U8A C38A] | 0.15 |
| GUCCUCUAUCACGUGCGCGUGAAAGAGAGAAGUGAACGAGAGAAACACACGUUGUGGUAUAUUACCUGGUA [U8A C38G] | 0.102 |
